In this experiment the target is Rubisco (Chlamydomonas reinhardtii (endogenous, purified from cells)) (UniProt P00877). As to the kind of experiment: fluorescence correlation spectroscopy; 20 nM EPYC1-GFP mixed with 2 μM Rubisco (no phase separation at this concentration); diffusion coefficient of EPYC1-GFP from a single-species fit.

With “EPYC1-GFP, unphosphorylated (mock-treated) (natural protein)”, the diffusion coefficient of EPYC1-GFP with Rubisco (60 μm^2/s without Rubisco) was determined as 41 μm^2/s.
